Consider 17 molecules from patent US10538583 (dated 2020).

Assay [1] concerns the target human ApoC3 (human). The assay is described as follows: SPR pH 5.5.
In assay [2] the target is human ApoC3 (human). The assay is described as follows: SPR pH 7.4, antibody immobilized.
Assay [3] has as its target human ApoC3 (human). The assay is described as follows: SPR pH 5.5, antibody immobilized.
For assay [4], the target named is human ApoC3 (human). Briefly: SPR pH 7.4.

What is called Kd is the concentration at which binding is half-saturated. High values mean lower affinity, low ones higher affinity.

Chain of human ApoC3 (human) (chain, as listed by the source): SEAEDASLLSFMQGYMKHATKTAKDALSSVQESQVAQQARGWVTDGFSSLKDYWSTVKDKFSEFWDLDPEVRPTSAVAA

B1: mAb2 (antibody, V domains shown)
VH: QLVESGGGLVQPGGSLRLSCAASGFTFGTYSMRWVRQVPGKGLEWVSSIHTEGGGTAYRDSVKGRFTISRDNAKNTLYLQMNSLRAEDTAIYYCVIAGYSDWGQGTLVTVSS
VL: DIVMTQSPLSLPVTPGESASISCKTSQGLVHSDGKTYFYWFLQKPGQSPQQLIYQVSNRASGVPDRFSGSGSGTDFTLKISRVKAEDAGVYYCAHGTYYPHTFGQGTRLEIK
Consider B1, for which the Kd in assay [1] stood at 0.283 nM; in assay [2], 103 nM; in assay [3], 290 nM; in assay [4], 0.0552 nM.

B2: mAb14 (antibody, V domains shown)
VH: QLLESGGGLVQPGGSLRLSCAASGFTFGTYSMRWVRQVPGKGLEWVSSIHTEGGGTAYRDSVKGRFTISRDNSKNTLYLQMNSLRAEDTAVYYCVIAGYSDWGQGTLVTVSS
VL: DIVMTQSPLSLPVTPGEPASISCKTSQGLVHSDGKTYFYWYLQKPGQSPQLLIYQVSNRASGVPDRFSGSGSGTDFTLKISRVEAEDVGVYYCAHGTYYPHTFGQGTRLEIK
Consider B2, for which the Kd was found to be 21.3 nM in assay [1], 1760 nM in assay [2] and 2.96 nM in assay [4].

B3: mAb3 (antibody, V domains shown)
VH: QLVESGGGLVQPGGSLRLSCAASGFTFGTYSMRWVRQAPGKGLEWVSSIHTEGGGTAYRDSVKGRFTISRDNAKNTLYLQMNSLRAEDTAIYYCVIAGYSDWGQGTLVTVSS
VL: DIVMTQSPLSLPVTPGESASISCKTSQGLVHSDGKTYFYWFLQKPGQSPQQLIYQVSNRASGVPDRFTGSGSGTDFTLKISRVKAEDAGVYYCAHGTYYPHTFGQGTRLEIK
Regarding B3, the Kd came out at 0.351 nM in assay [1], 174 nM in assay [2], 323 nM in assay [3] and 0.11 nM in assay [4].

B4: mAb15 (antibody, V domains shown)
VH: QLVESGGGLVQPGGSLRLSCAASGFTFGTYSMRWVRQAPGKGLEWVSSIHTEAGGTAYRDSVKGRFTISRDNAKNTLYLQMNNLKAEDTAIYYCVIAGYSDWGQGTQVTVSS
VL: DIVMTQSPLSLPVTPGESASISCKTSQGLVHSGGKTYFYWFLQKPGQSPQQLIYQVSNRASGVPDRFTGSGSGTDFTLKISRVEAEDAGVYYCAQGTYYPHTFGSGTRLEIK
For B4, the Kd in assay [1] was 0.353 nM; in assay [2] it was 34.7 nM; in assay [3], 86.2 nM; in assay [4], 0.00538 nM.

B5: mAb7 (antibody, V domains shown)
VH: QLVESGGGLVQPGGSLRLSCAASGFTFSTYSMRWVRQAPGKGLEWVSSIHTGGGGTAYRDSVKGRFTISRDNAKNTLYLQMNNLRAEDTAIYYCVIAGYSDWGQGTLVTVSS
VL: DIVMTQSPLSLPVTPGESASISCKTSQGLVHSDGKTYFYWFLQKPGQSPQQLIYQVSNRASGVPDRFSGSGSGTDFTLKISRVKAEDAGVYYCAHGTYYPHTFGQGTRLEIK
As for B5, the equilibrium dissociation constant (Kd) in assay [1] came out at 4.89 nM; in assay [2], 247 nM; in assay [3] it was 583 nM; in assay [4], 0.0928 nM.

B6: mAb16 (antibody, V domains shown)
VH: QLVESGGGLVQPGGSLRLSCAASGFTFGTYSMRWVRQAPGKGLEWVSSIHTEAGGTAYRDSVKGRFTISRDNAKNTLYLQMNNLKAEDTAIYYCVIAGYSDWGQGTQVTVSS
VL: DIVMTQSPLSLPVTPGESASISCKTSQGLVHSGGKTYFYWFLQKPGQSPQQLIYQVSNRASGVPDRFTGSGSGTDFTLKISRVEAEDAGVYYCAHGTYYPHTFGSGTRLEIK
As for B6, the Kd in assay [1] came out at 7.44 nM; in assay [2], 596 nM; in assay [4], 0.687 nM.

B7: mAb20 (antibody, V domains shown)
VH: QLVESGGGLVQPGGSLRLSCAASGFTFSTYSMRWVRQAPGKGLEWVSSIHTDAGGTAYRDSVKGRFTISRDNAKNTLYLQMNNLRPEDTAVYYCVIAGYSDWGQGTLVTVSS
VL: DIVMTQSPGSLSVTPGEPASISCKTSQGLVHSGGKTYFYWFLQKPGQSPQQLIYQVSNRASGVPDRFTGSGSGTDFTLKISGVEAEDAGVYYCAHGTYYPHTFGQGTRLEIK
Consider B7, for which the Kd turned out to be 9.44 nM in assay [1], 1340 nM in assay [2] and 0.586 nM in assay [4].

B8: mAb13 (antibody, V domains shown)
VH: QLLESGGGLVQPGGSLRLSCAASGFTFSTYSMRWVRQVPGKGLEWVSSIHTEGGGTAYRDSVKGRFTISRDNSKNTLYLQMNSLRAEDTAVYYCVIAGYSDWGQGTLVTVSS
VL: DIVMTQSPLSLPVTPGEPASISCKTSQGLVHSDGKTYFYWYLQKPGQSPQLLIYQVSNRASGVPDRFSGSGSGTDFTLKISRVEAEDVGVYYCAHGTYYPHTFGQGTRLEIK
Regarding B8, the equilibrium dissociation constant (Kd) was 5.56 nM in assay [1], 1000 nM in assay [2] and 4.19 nM in assay [4].

B9: mAb1 (antibody, V domains shown)
VH: QLVESGGGLVQPGGSLRLSCAASGFTFGTYSMRWVRQVPGKGLEWVSSIHTEGGGTAYRDSVKGRFTISRDNAKNTLYLQMNSLRAEDTAIYYCVIAGYSDWGQGTLVTVSS
VL: DIVMTQSPLSLPVTPGESASISCKTSQGLVHSDGKTYFYWFLQKPGQSPQQLIYQVSNRASGVPDRFTGSGSGTDFTLKISRVKAEDAGVYYCAHGTYYPHTFGQGTRLEIK
For the molecule B9, the Kd stood at 0.237 nM in assay [1], 73.9 nM in assay [2], 253 nM in assay [3] and 0.0454 nM in assay [4].

B10: mAb8 (antibody, V domains shown)
VH: QLVESGGGLVQPGGSLRLSCAASGFTFSTYSMRWVRQAPGKGLEWVSSIHTDAGGTAYRDSVKGRFTISRDNAKNTLYLQMNNLRAEDTAVYYCVIAGYSDWGQGTLVTVSS
VL: DIVMTQSPLSLSVVPGEPASISCKTSQGLVHSDGKTYFYWFLQKPGQSPQQLIYQVSNRASGVPDRFSGSGSGTDFTLKISRVEAEDVGVYYCAHGTYYPHTFGQGTRLEIK
Turning to B10, the equilibrium dissociation constant (Kd) is 0.749 nM in assay [1], 241 nM in assay [2], 242 nM in assay [3] and 0.102 nM in assay [4].

B11: mAb11 (antibody, V domains shown)
VH: QLVESGGGLVQPGGSLRLSCAASGFTFSTYSMRWVRQVPGKGLEWVSSIHTEGGGTAYRDSVKGRFTISRDNAKNTLYLQMNNLRAEDTAVYYCVIAGYSDWGQGTLVTVSS
VL: DIVMTQSPLSLSVTPGEPASISCKTSQGLVHSDGKTYFYWFLQKPGQSPQQLIYQVSNRASGVPDRFSGSGSGTDFTLKISRVEAEDVGVYYCAHGTYYPHTFGQGTRLEIK
Turning to B11, the Kd in assay [1] stood at 0.331 nM; in assay [2], 129 nM; in assay [3], 503 nM; in assay [4], 0.173 nM.

B12: mAb19 (antibody, V domains shown)
VH: QLVESGGGLVQPGGSLRLSCAASGFTFSTYSMRWVRQAPGKGLEWVSSIHTDAGGTAYRDSVKGRFTISRDNAKNTLYLQMNNLRPEDTAVYYCVIAGYSDWGQGTLVTVSS
VL: DIVMTQSPGSLSVTPGEPASISCKTSQGLVHSGGKTYFYWFLQKPGQSPQQLIYQVSNRASGVPDRFTGSGSGTDFTLKISGVEAEDAGVYYCAQGTYYPHTFGQGTRLEIK
As to B12, the equilibrium dissociation constant (Kd) amounted to 0.417 nM in assay [1], 35.5 nM in assay [2], 157 nM in assay [3] and 0.0453 nM in assay [4].

B13: mAb18 (antibody, V domains shown)
VH: QLVESGGGLVQPGGSLRLSCAASGFTFSTYSMRWVRQAPGKGLEWVSSIHTEAGGTAYRDSVKGRFTISRDNAKNTLYLQMNNLRAEDTAVYYCVIAGYSDWGQGTLVTVSS
VL: DIVMTQSPLSLPVTPGEPASISCKTSQGLVHSGGKTYFYWFLQKPGQSPQQLIYQVSNRASGVPDRFTGSGSGTDFTLKISRVEAEDAGVYYCAHGTYYPHTFGQGTRLEIK
Regarding B13, the Kd was 8.62 nM in assay [1], 509 nM in assay [2] and 1.33 nM in assay [4].

B14: mAb4 (antibody, V domains shown)
VH: QLVESGGGLVQPGGSLRLSCAASGFTFGTYSMRWVRQAPGKGLEWVSSIHTEGGGTAYRDSVKGRFTISRDNAKNTLYLQMNSLRAEDTAIYYCVIAGYSDWGQGTLVTVSS
VL: DIVMTQSPLSLPVTPGESASISCKTSQGLVHSDGKTYFYWFLQKPGQSPQQLIYQVSNRASGVPDRFSGSGSGTDFTLKISRVKAEDAGVYYCAHGTYYPHTFGQGTRLEIK
For the molecule B14, the dissociation constant Kd in assay [1] turned out to be 0.374 nM; in assay [2], 124 nM; in assay [3], 432 nM; in assay [4] it was 0.00464 nM.

B15: mAb9 (antibody, V domains shown)
VH: QLVESGGGLVQPGGSLRLSCAASGFTFSTYSMRWVRQAPGKGLEWVSSIHTDAGGTAYRDSVKGRFTISRDNAKNTLYLQMNNLRAEDTAVYYCVIAGYSDWGQGTLVTVSS
VL: DIVMTQSPLSLSVTPGEPASISCKTSQGLVHSDGKTYFYWFLQKPGQSPQQLIYQVSNRASGVPDRFSGSGSGTDFTLKISRVEAEDVGVYYCAHGTYYPHTFGQGTRLEIK
Turning to B15, the Kd came to 0.759 nM in assay [1], 232 nM in assay [2], 541 nM in assay [3] and 0.149 nM in assay [4].

B16: mAb5 (antibody, V domains shown)
VH: QLVESGGGLVQPGGSLRLSCAASGFTFGTYSMRWVRQAPGKGLEWVSSIHTEGGGTAYRDSVKGRFTISRDNAKNTLYLQMNSLRAEDTAVYYCVIAGYSDWGQGTLVTVSS
VL: DIVMTQSPLSLPVTPGESASISCKTSQGLVHSDGKTYFYWFLQKPGQSPQQLIYQVSNRASGVPDRFTGSGSGTDFTLKISRVKAEDAGVYYCAHGTYYPHTFGQGTRLEIK
For the molecule B16, the Kd in assay [1] was 0.345 nM; in assay [2], 181 nM; in assay [3], 408 nM; in assay [4], 0.148 nM.

B17: mAb10 (antibody, V domains shown)
VH: QLVESGGGLVQPGGSLRLSCAASGFTFSTYSMRWVRQVPGKGLEWVSSIHTEGGGTAYRDSVKGRFTISRDNAKNTLYLQMNNLRAEDTAVYYCVIAGYSDWGQGTLVTVSS
VL: DIVMTQSPLSLSVVPGEPASISCKTSQGLVHSDGKTYFYWFLQKPGQSPQQLIYQVSNRASGVPDRFSGSGSGTDFTLKISRVEAEDVGVYYCAHGTYYPHTFGQGTRLEIK
Turning to B17, the Kd in assay [1] worked out at 0.27 nM; in assay [2], 189 nM; in assay [3], 334 nM; in assay [4] it was 0.0956 nM.
